Earlier results on 1 substance are cited in publication PMC10339233.

This series concerns the target thrombomodulin EGF-like domains 4-6 (Homo sapiens) (UniProt P07204). Kind of series: SPR. (In SPR one partner is held on a chip, and binding of the other changes the refractive index at the surface.)

Regarding thrombin (from UniProt P00734), the Kd is 4 nM.

For orientation: Kd means the concentration at which binding is half-saturated.
